Experimental data: patent US9636415B2, “Bispecific molecule binding TLR9 and CD32 and comprising a T cell epitope for treatment of allergies” (S-TARget therapeutics GmbH, priority 2006, dated 2017)

Columns and labels:
[1] = system: PBMC; test: IFN and IL-4 ELISA in pooled PBMC culture supernatants after immunization with SG100; assay type: in vivo, rhesus monkey; details: positive control, data not shown; PBMC of SG100-immunized animals
Protocol: 5 healthy house dust mite (HDM) naïve rhesus monkeys were immunized 3× with SG100 (100 μg/shot) absorbed on Alum) on d0, d14 and d28. Blood samples were taken on d0 and d49 for T cell activation and antibody production.
Proliferation: PBMC ([…]) were cultured for 4 days (37° C./5% CO2/99% humidity) in 8 plex with medium, warhead (2 μg/ml), Immunogen (2 μg/ml), Der p1 (2 μg/ml), Der p2 (2 μg/ml), Der p5 (2 μg/ml) and Der p7 (2 μg/ml). As positive control Con A (Concanavaline A, Sigma) was used. Proliferation was measured by [3H]-thymidine (0.5 μCi/well) during the final 18 hrs of a 4 day culture. Cells were harvested for β-scintillation counting (Topcount NXT, Packerd, Ramsey, Minn., USA). Net counts per minutes were calculated by subtracting the counts of the medium control from the counts induced by the different antigens.
From each well of the 8plex stimulations of the proliferation experiment, 50 μl supernatant was taken after 24 h and pooled. The pooled supernatants were tested for the presence of IFN and IL-4 using commercially available ELISA kits from U-Cytech, Utrecht The Netherlands).

[2] = system: pDCS in PBMC; test: IL-6 and TNFα production after stimulation with CpG targeted to CD32 by aCD32a peptide (Example 10); assay type: cell-based, human; details: CpG without targeting
Protocol: Buffy coats were obtained from the Red Cross Austria. Cells were separated on ficoll hypack.
Freshly isolated PBMC's were incubated with 200 μg/ml aCD32a peptide published by Berntzen et al (J. Biol. Chem. (2009) 284:1126-1135; sequence ADGAWAWVWLTETAVGAAK-biotin, SEQ ID NO:68) in PBA (PBS containing 5% BSA) on ice for 30 minutes and washed twice with PBA, followed by an incubation with 10 μg/ml streptavidin in PBA on ice for 30 minutes and two times washing with PBA. Subsequently, PBMC's were incubated on ice for 15 minutes with either PBA, 5 μg/ml ODN-CpG C (M362, Axorra) in PBA or 5 μg/ml ODN-CpG C-3′-biotin in PBA (M362, Girindus). Unbound ODN-CpG C was washed away three time with PBA and PBMCs were cultured overnight (37° C., 5% CO2) in X-VIVO-15 medium (Cambrex), supplemented with 2% of decomplemented human AB+ serum. Supernatants were collected from PBMC cultures after overnight stimulation, and […] was analyzed with murine monoclonal capture and HRP-conjugated anti-IL-6 or TNF^L antibodies (BenderMed systems) using standard ELISA procedures.

[3] = system: human pDCs; test: IFNα production of pDCs after stimulation with CpG targeted to CD32, AT10 or ScFV from IV.3 (Example 9); assay type: cell-based; details: CpG without targeting; p<0.04 resp. p<0.02
Protocol: Buffy coats were obtained from healthy volunteers according to institutional guidelines and pDCs were purified by positive isolation using anti-BDCA-4-conjugated magnetic microbeads (Miltenyi Biotec) and cultured in X-VIVO-15 medium (Cambrex) supplemented with 2% of decomplemented human AB+ serum. pDCs purity was routinely up to 95%, as assessed by double staining BDCA-2/CD123 (Miltenyi Biotec) in a FACS.
Subsequently, pDCs were incubated on ice for 15 minutes with either PBA, 5 μg/ml ODN-CpG C (M362, Axorra) in PBA or 5 μg/ml ODN-CpG C-3′-biotin in PBA (M362, Biosearch Technologies). Unbound ODN-CpG C was washed away three time with PBA and pDCs were cultured overnight (37° C., 5% CO2) in X-VIVO-15 medium (Cambrex), supplemented with 2% of decomplemented human AB+ serum. Supernatants were collected from pDC cultures after overnight stimulation, and IFNα production was analyzed with murine monoclonal capture and HRP-conjugated anti-IFNα antibodies (BenderMed systems) using standard ELISA procedures.

[4] = system: mice; test: IgG1 and IgG2a ELISA after s.c. immunization of mice with ScFV-1-coil or warhead; assay type: in vivo, mouse; details: day 28, s.c. 2x 35 μg d0, d14
Protocol: 24 mice (6/group) were immunized s.c. 2× with 35 μg in 150 μl ScFV-1-coil or with warhead (ScFV-1-coil-M362) either formulated on Alum or diluted in PBS. Immunizations were done on d0, and d14, sera were taken on d0 (before immunization) and d28 and analyzed for IgG1 and IgG2a against ScFV-1-coil (indicated as ScFV) and mAb IV.3 by standard ELISA.

[5] = independent of the presence of Alum

Q: With Concanavaline A [Con A] as the molecule, how does the “IL-4 after stimulation with Con A” value [1] read?
A: Its value is “IL-4 was seen”.

Q: What does the source list for “TCGTCGTCGTTCGAACGACGTTGAT (chemistry not fully specified) [CpG standard, CpG class C oligodeoxynucleotide, TLR9 agonist, used without targeting]”?
A: IL-6 production: times less potent than CpG targeted to CD32 [2]: ~75 times; potency of IFNα induction compared to CpG targeted to CD32 [3]: significantly less potent

B1: warhead (conjugate)
scFv: EVQLQQSGPELKKPGETVKISCKASGYTFTNYGMNWVKQAPGKGLKWMGWLNTYTGESIYPDDFKGRFAFSSETSASTAYLQINNLKNEDMATYFCARGDYGYDDPLDYWGQGTSVTVSSGGGGSGGGGSGGGGSDIVMTQAAPSVPVTPGESVSISCRSSKSLLHTNGNTYLHWFLQRPGQSPQLLIYRMSVLASGVPDRFSGSGSGTAFTLSISRVEAEDVGVFYCMQHLEYPLTFGAGTKLELKGSISAWSHPQFEKGPEVSALEKEVSALEKEVSALEKEVSALEKEVSALEK
Q: For B1, which “IgG1 response to ScFV-1-coil” value [4, 5] is on record?
A: The value was “strong”.

Q: And the “IgG1 response to mAb IV.3” value [4, 5]?
A: The value was “strong”.

Q: And the “IgG2 response to ScFV-1-coil” value [4, 5]?
A: Its value is “strong”.

Q: And the “IgG2 response to mAb IV.3” value [4, 5]?
A: Its value is “strong”.

B2: ScFV-1-coil: ScFV derived from mAb IV.3 with pepE coil plus StrepTag II (SEQ ID 93) (protein)
scFv: B1 scFv
modifications: ScFV
Q: Which results are given for B2?
A: IgG2a response ([4]; on Alum or in PBS): no IgG2a response was induced; IgG1 response against ScFV-1-coil ([4]; only in the presence of Alum): induced an IgG1 response
